Among the data in paper PMC9893218 are stoichiometry N values, retold here.

This test concerns the target trastuzumab. The experiment in a line: SEC + native MS.

As a reminder, the stoichiometry N is the number of molecules, sites or subunits per partner or assembly. As to trastuzumab (antibody), the stoichiometry N was 2.
